Test results: the supplement of paper PMC10126150
± gives the standard deviation of the averaged measurements.

System: ATP
Test: switch fluorescence ratio, 500 uM ATP over buffer (Cy3 cluster intensity, sum of 5 cycles each) (fold (ratio)); higher = stronger signal-on switching upon ATP binding; sequences stand for … in TCGTCGGCAGCGTCAGATGTGTATAAGAGACAGTTTTTTTTTTTTTTTTTTTTTTTTT…TC
Settings: aptamer strand: ATP DNA aptamer (quencher-CACCTGGGGGAGTATTGCGGAGGAAGG + anchor), 100 nM annealed; ATP concentration: 500 uM
Procedure, shortened: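 The quencher-labelled ATP aptamer, at 100 nM, was annealed to Cy3-labelled switching-strand clusters on a modified Illumina MiSeq flow-cell. The clusters were imaged in selection buffer, then after 15 min with 500 uM ATP at 22 °C, and this buffer/ATP cycle ran five times with NaOH stripping and re-annealing between runs. Per-cluster fluorescence ratios, summed target-cycle over summed buffer-cycle Cy3 intensity, were averaged per switch-domain sequence. Clusters outside 100-1000 RFU were excluded.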
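Further: ATP exposure 15 min at 22 °C before imaging.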

Sequence	switch fluorescence ratio
AAAGATGATG	1.0025 ± 0.00068
TTTCATGTAT	1.01 ± 0.012
AGTAAGGGGG	0.998 ± 0.035
TTTATCAAAA	0.993 ± 0.012
TGAAAAAAAA	0.971 ± 0.025
GTTAGTAATC	1.06 ± 0.014
TGAGGTCAGA	1.03 ± 0.013
TATAAAATTC	1.24 ± 0.43
CGGGTCGGTT	1.07 ± 0.1
AGTTATTTGC	0.997 ± 0.024
TCAGGGCAGC	1.01 ± 0.019
TGACTGGGTA	1 ± 0.021
TTTATTACCC	1.02 ± 0.025
GTAGTGGGGT	0.987 ± 0.016
GGCCTATTCC	1.04 ± 0.011
CATTCGTCGC	1.12 ± 0.026
TGGGCGAATG	0.9946 ± 0.0058
GTGATATCTG	0.98 ± 0.038
TTGGCGGGGA	0.987 ± 0.054
ATTTTAACT	0.988 ± 0.013
CACTCTGCTG	1.19 ± 0.012
AAAGAACGGG	1.04 ± 0.023
TTTGAAGTTT	1 ± 0.018

Sequence	switch fluorescence ratio
AGTGCAAGTG	0.972 ± 0.011
ACAGGAAACG	1.042 ± 0.0014
TATATTTCGT	1.03 ± 0.07
CATAGTTGCG	1.02 ± 0.04
AACTGGATAT	1.04 ± 0.017
TTAAGGAGCA	1.05 ± 0.044
AGCTTCGTTT	1 ± 0.031
CACATGGTCG	0.997 ± 0.02
GTTGTATACT	0.993 ± 0.076
GGTTGCGGTG	0.94 ± 0.083
CACCGAAATG	1.17 ± 0.1
AGGGTTGGAG	1.003 ± 0.0042
GGGATCTCGG	1.05 ± 0.0066
GGGAATGGTC	1.01 ± 0.043
AAATCCCGTA	1.01 ± 0.052
TCACTATACT	1.41 ± 0.085
GGCTGCCAGT	0.9909 ± 0.0016
TGGGGGGATA	0.994 ± 0.045
CGGACACTTT	1.019 ± 0.0091
GGTGGATGGC	1 ± 0.013
ATATTGTGAC	1.032 ± 0.004
TGGTTCGAGA	0.979 ± 0.025
TATAAGAAGC	0.993 ± 0.021

Sequence	switch fluorescence ratio
TCGTGGCGCT	0.995 ± 0.048
TTGGGGGCA	1.03 ± 0.045
CTGGGGAAAG	1.02 ± 0.033
CAAGTCCGTT	1 ± 0.037
GATAGGTTGG	0.985 ± 0.066
CTTCATCTTT	0.996 ± 0.018
CTTGGAGTTG	1.02 ± 0.07
CCGGGTATCC	1.19 ± 0.18
CCTGGTGAGG	1.04 ± 0.072
GGTGAGGCTA	1 ± 0.022
GCTCTGGGGA	1.07 ± 0.12
TGTAAGGTTT	1.01 ± 0.024
TTTTATGGCA	1.02 ± 0.021
AGTGACGGTA	1.04 ± 0.042
CAATGGTTTG	1 ± 0.018
TATTAAGAGG	0.98 ± 0.018
ATGCTTATGG	0.994 ± 0.037
TGCCGGCTCG	1.01 ± 0.012
TCGGAGGGGG	1.05 ± 0.2
GGTTAGGAGT	0.99 ± 0.0081
TGGTATTATT	0.998 ± 0.024
GGTAGAGATT	1.02 ± 0.037
GGATGCCGGG	1 ± 0.043

Sequence	switch fluorescence ratio
ATAGGCGGAA	1.02 ± 0.036
TTTTTGTT	0.99 ± 0.0068
GTGAAAGGGT	1.02 ± 0.015
TAAATGTCTG	0.995 ± 0.015
TTATTAATAC	1.177 ± 0.0012
TTATAAGGGA	0.977 ± 0.049
GCTTATCTTT	0.978 ± 0.051
GATAGGGTAC	1.0351 ± 0.0001
CAAGTCCATT	1.01 ± 0.034
CATTAATGTA	0.9977 ± 0.0033
AGAGGCCAGG	1.0973 ± 0.00031
GATCTTTCAT	1 ± 0.018
CGTGATTTA	0.961 ± 0.017
GCTGATTTAT	0.982 ± 0.018
TACTGTGACA	1.14 ± 0.012
AATAAACGGG	1.03 ± 0.015
GAGGGATTCT	0.99037 ± 0.00064
TTTTGTTCGG	0.99 ± 0.029
AAGTCTGTTA	0.994 ± 0.032
TCTGGAAGGT	1.04 ± 0.053
GCATCAAAGG	0.995 ± 0.013
TGTTGGGCCC	1 ± 0.018
TTAAAAAGAG	0.999 ± 0.042

Sequence	switch fluorescence ratio
AGGCGGGAGG	1.034 ± 0.0056
CGGAATTTCC	1.09 ± 0.048
TTTGACGGTG	1.01 ± 0.034
CGGCTGTACG	1.07 ± 0.022
GAGGGTGGGG	1.01 ± 0.04
CTCTACAGGG	1.04 ± 0.042
GCGTATTGAG	1.02 ± 0.022
ATCAGCAACG	1.01 ± 0.026
CAGACGAGGC	1.044 ± 0.0037
CGGGCCACGT	0.997 ± 0.034
ACATCGACTG	1.02 ± 0.048
GGGGGGGCTC	0.965 ± 0.035
TTCATTCATG	0.97 ± 0.0033
TTATTAGTGC	1.03 ± 0.1
TTTTCACGGT	1.01 ± 0.021
CTTCAGTTAC	1.82 ± 0.19
ACGTAATTAA	1.13 ± 0.026
CGTGATGGTT	0.983 ± 0.014
CCAGGGGGGT	1.99 ± 1.4
CTGGTGGGGT	1.02 ± 0.044
CATGTTGGCT	1.012 ± 0.0039
AGGGAGCCCG	1.01 ± 0.036
TACAGGGGTA	1.05 ± 0.012

Sequence	switch fluorescence ratio
GATGTATTCG	1.001 ± 0.0089
AGAAAAATAC	1.49 ± 0.67
AGTTTCGGGT	0.9636 ± 0.0082
TTTTTATCAA	1.01 ± 0.041
TTCAAGCGTT	0.982 ± 0.019
ACGGGGGAGG	1.02 ± 0.028
AGGTGGTGGG	1.01 ± 0.014
ACTCCATGCG	1.155 ± 0.0036
ATTTTCTTTT	1.06 ± 0.079
AGGAGGAAGT	1.01 ± 0.026
TTCTTGTCGG	0.984 ± 0.027
TGTTGTAGGA	0.997 ± 0.015
TAGGCCAGTA	1.024 ± 0.0091
GATGAAATGT	0.994 ± 0.015
ACTTATTGGG	1.03 ± 0.011
GCGGCACGTG	0.97 ± 0.048
AGTGCGTGCG	0.979 ± 0.059
ATGATAATGT	0.985 ± 0.014
ATGGGCTGAG	0.992 ± 0.017
TTACGTGTTA	0.995 ± 0.041
TGGTTAGAAT	0.986 ± 0.024
AACCTCTCAT	1.08 ± 0.011
GGGGGGTTTT	1.01 ± 0.059

Sequence	switch fluorescence ratio
AAAGGCGTTA	0.9971 ± 0.0062
GCATTTTTTC	1.03 ± 0.019
TGAAAAAATC	0.987 ± 0.019
TAAAGGTTCG	0.9618 ± 0.009
GTGGAAAGGA	0.991 ± 0.024
GGGGGAAAGT	0.992 ± 0.026
TTATAACTTT	1.02 ± 0.028
CTCCGGTTTG	2.03 ± 1.4
CTAGGGGATG	1.03 ± 0.062
CAGGGGCTGT	0.997 ± 0.038
AAATTTTACT	1.02 ± 0.031
TTCTTTGGCT	0.977 ± 0.018
CAGTAGGGAG	0.987 ± 0.022
GAGCGAGGAA	0.98171 ± 0.00093
GAGACCCGTG	0.9867 ± 0.0059
ACACAGCGGC	1.16 ± 0.046
GGGATGGATT	0.969 ± 0.047
GGCGGTACGG	1.01 ± 0.0066
ACTCCGGGGA	2.4 ± 0.42
